From article PMC6643034, “A knottin scaffold directs the CXC-chemokine–binding specificity of tick evasins” (The Journal of Biological Chemistry, 2019)

B7: CXCL11 (ligand, human, UniProt O14625 22-94, looked up)
chain: FPMFKRGRCLCIGPGVKAVKVADIEKASIMYPSNNCDKIEVIITLKENKGQRCLNPKSKQARLIIKKVERKNF
notes: human CXCL11
B10: CXCL13 (ligand, human, UniProt O43927 23-109, looked up)
chain: VLEVYYTSLRCRCVQESSVFIPRRFIDRIQILPRGNGCPRKEIIVWKKNKSIVCVDPQAEWIQRMMEVLRKRSSSTLPVPVFKRKIP
notes: human CXCL13

Assays:
Conditions in all cases: both partners purified
CXCL2 [1] = biological target: T1, CXCL2 (human, UniProt P19875 35-107); assay: BLI; cross-binding screen on OctetRed; evasin held on a nickel-coated biosensor through its C-terminal His tag; each human chemokine at 300 nM
T1 construct: human CXCL2

CXCL11 [2] = biological target: B7; assay: as above
CXCL3 [3] = biological target: T2, CXCL3 (human, UniProt P19876 35-107); assay: as above
T2 construct: human CXCL3

CXCL13 = biological target: B10; assay: as above
CXCL1 [4] = biological target: T3, CXCL1 (human, UniProt P09341 35-107); assay: as above
T3 construct: human CXCL1

CXCL10 [5] = biological target: T4, CXCL10 (human, UniProt P02778 22-98); assay: as above
T4 construct: human CXCL10

CXCL2 [6] = biological target: T1, CXCL2; assay: as above; remark: listed apart in the source
CXCL3 [7] = biological target: T2, CXCL3; assay: as above; remark: listed apart in the source
CXCL1 [8] = biological target: T3, CXCL1; assay: as above; remark: listed apart in the source
CXCL2 [9] = biological target: T5, CXCL2 (human, UniProt P19875 35-107); assay: BLI; OctetRed; parental evasins and domain-swap hybrids held by the His tag; titration with chemokine from 600 to 0.4 nM; fit criterion R2 ≥ 0.89, five (in four cases four) concentrations
T5 construct: human CXCL2 of the panel of human chemokines used for biolayer interferometry

CXCL3 [10] = biological target: T6, CXCL3 (human, UniProt P19876 35-107); assay: as above
T6 construct: human CXCL3 of the panel of human chemokines used for biolayer interferometry

CXCL2 [11] = biological target: T1, CXCL2; assay: BLI; cross-binding screen on OctetRed; evasin held on a nickel-coated biosensor through its C-terminal His tag; each human chemokine at 300 nM; remark: listed apart in the source
CXCL11 [12] = biological target: B7; assay: as above; remark: listed apart in the source
CXCL10 [13] = biological target: T4, CXCL10; assay: as above; remark: listed apart in the source
CXCL3 [14] = biological target: T2, CXCL3; assay: as above; remark: listed apart in the source
CXCL1 [15] = biological target: T3, CXCL1; assay: as above; remark: listed apart in the source
P1080_IXORI = biological target: T7, P1080_IXORI (Ixodes ricinus, UniProt A0A090XBL6 20-118); assay: as above
T7 construct: evasin P1080, mature peptide, 99 residues; N-terminal DGG expected after signal peptide cleavage; glycosylated

Measured: binding result

T7 sequence (A0A090XBL6 20-118): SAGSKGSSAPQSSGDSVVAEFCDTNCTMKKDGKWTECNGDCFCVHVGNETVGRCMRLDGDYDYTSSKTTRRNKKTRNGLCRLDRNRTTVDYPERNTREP

B1: P1078_IXORI (natural protein)
chain: GSKGSSAQQSSHDSIKAEFCETNCTMKTGGKWTQCHGGCFCVHVGNETVGRCIKLDGDYDYPSSKHEE
notes: evasin P1078, mature peptide, 68 residues; N-terminal DGG expected after signal peptide cleavage; glycosylated
binds: CXCL2 [1] | CXCL11 [2] | CXCL3 [3] | CXCL13 | CXCL1 [4]

B2: P1086_IXORI (natural protein)
chain: GSKGQRASQVSETSITAEFCDTSCTQGTDKTWSGCSGDCFCVHVGNDTEGRCMRWDGDYPSAEEEE
notes: evasin P1086, mature peptide, 66 residues; N-terminal DGG expected after signal peptide cleavage; glycosylated
binds: CXCL2 [1] | CXCL10 [5] | CXCL3 [3] | CXCL13 | CXCL1 [4]

B3: EVA3_RHISA (natural protein)
chain: LVSTIESRTSGDGADNFDVVSCNKNCTSGQNECPEGCFCGLLGQNKKGHCYKIIGNLSGEPPVVRR
notes: N-terminal DGG expected after signal peptide cleavage; glycosylated; also called evasin 3; Evasin-3
binds: CXCL2 [6] | CXCL3 [7] | CXCL1 [8]

B4: Evasin 3 (EVA3) (natural protein)
chain: DGGLVSTIESRTSGDGADNFDVVSCNKNCTSGQNECPEGCFCGLLGQNKKGHCYKIIGNLSGEPPVVRR
modifications: also: glycosylated
notes: residues expected at the N terminus after cleavage of the Igκ signal peptide (SignalP 3.0); Evasin-3 (EVA3_RHISA), Rhipicephalus sanguineus, mature peptide; class I founder; also called EVA3_RHISA; WT EVA3; source: HEK293F, transiently transfected, secreted; purified (nickel IMAC, SEC)
binds: CXCL2 [9] | CXCL3 [10]

B5: P942_IXORI (natural protein)
chain: NQLSGPQSSANSNEAVFCDTNCTQGTDEAWSGCRGDCFCVYVGNSTEGRCMMLSGDFDYSTPGAED
notes: evasin P942, mature peptide, 66 residues; N-terminal DGG expected after signal peptide cleavage; glycosylated
binds: CXCL2 [1] | CXCL11 [2] | CXCL10 [5] | CXCL3 [3] | CXCL13 | CXCL1 [4]

B6: P1126_AMBCA (natural protein)
chain: KPQILQRTDKSTDSEWDPQTCPETCIPSKNITCSDGCVCVKLGEEEEGTCFNMTGVDWLGSPSDD
notes: evasin P1126, mature peptide, 65 residues; N-terminal DGG expected after signal peptide cleavage; glycosylated
binds: CXCL2 [11] | CXCL11 [12] | CXCL10 [13] | CXCL3 [14] | CXCL1 [15]

B7
binds: P1080_IXORI

B8: P1100_IXORI (natural protein)
chain: GSKGSSASQSSDNSVVAKFCDTNCTINEGGKWTECKGGCFCVHVGNETVGRCMKLDGDYDYPSPKPEE
notes: evasin P1100, mature peptide, 68 residues; N-terminal DGG expected after signal peptide cleavage; glycosylated
binds: CXCL2 [1] | CXCL11 [2] | CXCL10 [5] | CXCL3 [3] | CXCL13 | CXCL1 [4]

B9: P1142_AMBCA (natural protein)
chain: KPQILQRTDHSTDSDWDPQMCPETCNPSKNISCSSECLCVTLGGGDETGTCFNMSGVDWLGHAQASDGHNDG
notes: evasin P1142, mature peptide, 72 residues; N-terminal DGG expected after signal peptide cleavage; glycosylated
binds: CXCL2 [11] | CXCL11 [12] | CXCL10 [13] | CXCL3 [14] | CXCL1 [15]

B10
binds: P1080_IXORI
